Results taken from paper PMC8584152, “The Bacterial Amyloids Phenol Soluble Modulins from Staphylococcus aureus Catalyze Alpha-Synuclein Aggregation” (International Journal of Molecular Sciences, 2021).

B1: PSMα2 sequence IIAGIIKFIK (10-residue array peptide) (peptide)
peptide: IIAGIIKFIK
notes: source: 10-residue peptide immobilized on a microarray chip; maker not clearly stated
B2: PSMα2 sequence GIIKFIKGLI (10-residue array peptide) (peptide)
peptide: GIIKFIKGLI
notes: as for B1
B3: PSMα3 sequence FVAKLFKFFK (10-residue array peptide) (peptide)
peptide: FVAKLFKFFK
notes: as for B1

Target: Human wildtype α-syn, Alexa-fluor488-labelled (human, UniProt P37840 1-140)
Assay: peptide or protein array
Details: both partners purified

Binder	binding result
B1	binds
B2	binds
B3	binds
